Assays:
[1] = target: T1, AdV5 pIIIa (human adenovirus C serotype 5) (UniProt P12537)
T1 sequence: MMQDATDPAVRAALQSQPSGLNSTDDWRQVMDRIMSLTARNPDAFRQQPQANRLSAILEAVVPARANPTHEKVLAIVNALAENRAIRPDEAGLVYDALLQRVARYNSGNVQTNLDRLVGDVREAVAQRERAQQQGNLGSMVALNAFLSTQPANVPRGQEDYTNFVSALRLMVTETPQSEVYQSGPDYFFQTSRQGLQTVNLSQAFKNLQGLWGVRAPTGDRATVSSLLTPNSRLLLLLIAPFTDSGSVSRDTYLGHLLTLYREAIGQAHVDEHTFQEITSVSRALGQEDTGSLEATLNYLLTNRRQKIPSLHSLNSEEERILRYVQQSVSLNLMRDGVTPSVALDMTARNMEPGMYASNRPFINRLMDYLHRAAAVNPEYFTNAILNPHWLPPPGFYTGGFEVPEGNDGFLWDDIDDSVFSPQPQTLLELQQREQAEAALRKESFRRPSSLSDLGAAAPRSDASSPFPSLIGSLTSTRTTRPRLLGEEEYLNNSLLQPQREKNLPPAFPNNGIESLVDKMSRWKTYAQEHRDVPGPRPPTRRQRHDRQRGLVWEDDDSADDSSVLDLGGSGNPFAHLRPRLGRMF

[2] = target: T2, AdV5 pIVa2 (human adenovirus C serotype 5) (UniProt P03271)
T2 sequence: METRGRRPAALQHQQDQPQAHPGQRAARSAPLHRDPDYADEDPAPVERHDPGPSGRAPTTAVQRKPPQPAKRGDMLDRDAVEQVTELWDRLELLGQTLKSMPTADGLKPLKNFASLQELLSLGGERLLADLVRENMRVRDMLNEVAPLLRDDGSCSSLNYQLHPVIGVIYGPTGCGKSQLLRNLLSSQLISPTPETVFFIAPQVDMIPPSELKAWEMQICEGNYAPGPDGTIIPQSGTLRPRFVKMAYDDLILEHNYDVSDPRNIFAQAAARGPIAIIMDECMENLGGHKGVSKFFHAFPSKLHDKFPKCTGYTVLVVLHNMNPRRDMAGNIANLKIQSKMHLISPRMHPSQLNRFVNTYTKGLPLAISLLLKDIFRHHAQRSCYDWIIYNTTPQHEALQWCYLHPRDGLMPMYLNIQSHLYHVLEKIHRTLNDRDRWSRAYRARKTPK

[3] = target: AdV5 pIX (human adenovirus C serotype 5) (UniProt P03281)
[4] = target: AdV5 Hexon (human adenovirus C serotype 5) (UniProt P04133)
[5] = target: AdV5 pVI (human adenovirus C serotype 5) (UniProt P24937)
[6] = target: T3, AdV5 pVII (human adenovirus C serotype 5) (UniProt P68951)
T3 sequence (chain, acetylation at S2 (100.0%)): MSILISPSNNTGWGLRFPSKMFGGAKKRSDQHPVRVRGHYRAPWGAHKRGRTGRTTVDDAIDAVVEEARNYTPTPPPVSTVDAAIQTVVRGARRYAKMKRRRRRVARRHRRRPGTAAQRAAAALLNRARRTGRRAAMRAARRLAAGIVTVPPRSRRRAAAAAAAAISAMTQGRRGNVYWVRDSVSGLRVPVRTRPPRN

[7] = target: AdV5 AVP (human adenovirus C serotype 5) (UniProt P03253)
[8] = target: AdV5 Fiber (human adenovirus C serotype 5) (UniProt P11818)
[9] = target: AdV5 Penton base (human adenovirus C serotype 5) (UniProt P12538)
[10] = target: AdV5 pVIII (human adenovirus C serotype 5) (UniProt P24936)
[11] = target: T4, AdV5 pµ (human adenovirus C serotype 5) (UniProt Q2KS10)
T4 sequence: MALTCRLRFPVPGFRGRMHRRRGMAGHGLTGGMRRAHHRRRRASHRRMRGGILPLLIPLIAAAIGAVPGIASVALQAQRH

[12] = target: T5, AdV5 pV (human adenovirus C serotype 5) (UniProt P24938)
T5 sequence: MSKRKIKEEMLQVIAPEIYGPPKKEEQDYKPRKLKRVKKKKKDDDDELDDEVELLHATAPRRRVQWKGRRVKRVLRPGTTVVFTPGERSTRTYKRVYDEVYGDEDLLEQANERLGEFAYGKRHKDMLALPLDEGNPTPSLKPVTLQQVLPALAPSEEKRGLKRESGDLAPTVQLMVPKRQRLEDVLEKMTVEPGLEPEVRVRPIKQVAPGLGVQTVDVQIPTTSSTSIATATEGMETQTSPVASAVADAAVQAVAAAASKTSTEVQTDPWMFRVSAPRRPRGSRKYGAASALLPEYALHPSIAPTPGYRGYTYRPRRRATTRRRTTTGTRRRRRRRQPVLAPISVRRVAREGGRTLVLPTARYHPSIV

[13] = target: AdV5 pTP (human adenovirus C serotype 5) (UniProt P04499)
[14] = target: Anc80 AAV capsid viral protein VP1

Sequence of Sequencing grade trypsin (P00761 9-231 limits assumed): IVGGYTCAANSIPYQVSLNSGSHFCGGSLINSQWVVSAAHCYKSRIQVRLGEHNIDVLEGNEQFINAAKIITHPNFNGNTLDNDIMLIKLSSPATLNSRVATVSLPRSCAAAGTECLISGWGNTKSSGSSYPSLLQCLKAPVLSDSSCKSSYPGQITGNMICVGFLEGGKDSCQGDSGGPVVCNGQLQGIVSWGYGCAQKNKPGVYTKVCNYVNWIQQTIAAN
Sequence of AdV5 Penton base (human adenovirus C serotype 5) (P12538 whole entry): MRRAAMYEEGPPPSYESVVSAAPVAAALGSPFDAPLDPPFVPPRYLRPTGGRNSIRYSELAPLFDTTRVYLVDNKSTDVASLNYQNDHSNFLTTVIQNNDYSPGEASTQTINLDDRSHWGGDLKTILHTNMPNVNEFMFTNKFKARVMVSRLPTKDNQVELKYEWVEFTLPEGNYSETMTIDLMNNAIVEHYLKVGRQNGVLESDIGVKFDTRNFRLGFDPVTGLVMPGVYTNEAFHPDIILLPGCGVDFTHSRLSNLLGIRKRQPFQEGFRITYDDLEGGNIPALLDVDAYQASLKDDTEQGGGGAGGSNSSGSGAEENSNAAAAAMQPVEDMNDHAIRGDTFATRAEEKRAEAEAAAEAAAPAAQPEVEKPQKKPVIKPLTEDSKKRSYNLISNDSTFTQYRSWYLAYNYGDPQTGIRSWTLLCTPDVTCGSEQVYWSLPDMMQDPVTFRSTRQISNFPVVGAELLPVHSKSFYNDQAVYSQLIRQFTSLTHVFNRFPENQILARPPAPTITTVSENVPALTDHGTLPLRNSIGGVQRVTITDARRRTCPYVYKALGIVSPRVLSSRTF

Substance | Sequence Coverage (%) by LC-MS/MS after trypsin digestion [1] [%] | Sequence Coverage (%) by LC-MS/MS after trypsin digestion [2] [%] | Sequence Coverage (%) by LC-MS/MS after trypsin digestion [3] [%] | Sequence Coverage (%) by LC-MS/MS after trypsin digestion [4] [%] | Sequence Coverage (%) by LC-MS/MS after trypsin digestion [5] [%] | Sequence Coverage (%) by LC-MS/MS after trypsin digestion [6] [%] | Sequence Coverage (%) by LC-MS/MS after trypsin digestion [7] [%] | Sequence Coverage (%) by LC-MS/MS after trypsin digestion [8] [%] | Sequence Coverage (%) by LC-MS/MS after trypsin digestion [9] [%] | Sequence Coverage (%) by LC-MS/MS after trypsin digestion [10] [%] | Sequence Coverage (%) by LC-MS/MS after trypsin digestion [11] [%] | Sequence Coverage (%) by LC-MS/MS after trypsin digestion [12] [%] | Sequence Coverage (%) by LC-MS/MS after trypsin digestion [13] [%] | sequence coverage by LC-MS/MS after Asp-N digestion [14] [%]
Sequencing grade trypsin (from UniProt P00761) (enzyme) | 99.1 | 84.2 | 99.3 | 91.4 | 98.6 | 91.9 | 91.7 | 89.2 | 98.9 | 93.8 | 92.5 | 94.3 | 55.1 | –
Asp-N protease (enzyme) | – | – | – | – | – | – | – | – | – | – | – | – | – | 99.2
